The target in this test is HER2 extracellular domain (HER2-ECD) (human) (UniProt P04626). The experiment in a line: SPR (BIAcore 2000 or 3000), Fab over immobilized HER2-ECD, 37 °C, KD = koff/kon. (Surface plasmon resonance follows binding to a sensor surface in real time, without labels.)

Substance “hu4D5-8 Fab M.7 (N30(VL)S+H91(VL)F+Y92(VL)W+T94(VL)S+D98(VH)W+Y100a(VH)F+Y102(VH)V)” returned a Kd of 0.38 nM.

A word on the Kd: it is the concentration at which binding is half-saturated.

The values above are taken from patent US20030228663A1.
